Data from the RNAGym collection of RNA variant scans (doi:10.1073/pnas.2313332121).

B1: TPR t1 (parent)
chain: GACCAAUCUGCCCUCAGAGCUCGAGAACAUCUUCGGAUGCAGAGGAGGCAGGCUUCGGUGGCGCGAUAGCGCCAACGUCCUCAACCUCCAAUGCAUCCCACCACAUGAUGAUGCCUGAAGAGCCUUGGUUUUUUG

Variants of: B1
Test: polymerase ribozyme fitness, log enrichment relative to wild type (log ratio); higher = more active; in vitro selection for triplet polymerase activity
Outline: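 For each subunit of a heterodimeric triplet polymerase ribozyme, a mutant library was built by PCR and transcribed, then taken through a single in vitro selection round in triplicate. Selection involved annealing to a biotinylated primer, the partner subunit and triplets, incubation frozen at −7 °C, gel excision of extended constructs, capture on streptavidin beads and RT-PCR. Genotypes were retained after Illumina sequencing of inputs and outputs only with ≥10 input reads and ≥1 read in each output. Fitness is defined as the logarithm of a genotype's enrichment relative to wild-type enrichment, using inverse-variance-weighted averages across replicates, with the logarithm taken to base 2.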

Variant | polymerase ribozyme fitness (log ratio)
G61C A105U | -3.67
G48U G71U U81A C124U | -0.483
C70A G77A A90G | -1.37
G10A A43G C76U C89U A111C | -4
C15G G19A C73U U112A G122U | -3.84
G71A U96G | -1.35
A37G C64U U78C C86G | -4.56
G58A G60A A68G A100U C115A | -5.02
G10C G60U | -0.819
C72U G127C | -1.75
G10A G48U G52A G77U | -2.41
C3U C82A | -0.533
C11U G47A G48A | -2.36
G57C C73U C101A A111C | -0.202
U7A C31U A111G | -4.76
A74C U96G | -1.28
C13A A43G | -3.45
G44C G58C A121G | 1.21
G47C U55G C88U | -1.25
U9A C15A C56G C70U C76U G120C G122U U129C | -6.98
A90U G110A | -4.07
G60A C73A A91C G113U | -3.43
C49A C73G | -1.88
C8U U38A C70U | -1.62

Variant | polymerase ribozyme fitness (log ratio)
C40U G61C C72U C88A | -1.95
G57A C80U | -1.38
G42U C115U | -1.27
A6C C76U C101G G122A C124U U129A | -2.42
C15A C73G C123A | -2.17
G60U A90C | -1.12
G17U U38A G71C U125A | -4.76
A18C C56A | -3.08
G60A | -0.00692
A29G C72A G113A G128A | -2.62
U116C G117C | -2.2
A68G U87C A111C G135U | -6.03
G117C U125A G135C | -4.9
A46U C82A C86U G110U U131A | -4.27
A6U G71U G110A G127U U133G | -2.25
U9G C13U C15A C40U G61C | -2.7
C115A G135U | -0.547
C11U C114A C123U | -2.21
U33A G48C G113C | -5.71
A43C C72A G122A | -3.17
A6C G44C G58A U96A | -2.15
C72G U81C C104G C115U U133A | -6.64
G61U C89G A91U C124U | -0.422
A6G G63C | 0.397

Variant | polymerase ribozyme fitness (log ratio)
G39U A46G U78A C89U A95U C97U | -2.4
C8A U55G C114A C115U | -2.83
C8G G113C | -1.31
C20U U78C | -1.11
C56A C82A C97U U129G | -2.1
G52A G69A | -3.61
A6U C53U C73U | 0.296
U38G C72G | -0.641
C3U C49G | -1.16
A18U G77U | -2.27
U54G U59C U130A | -1.81
C4U A6U U78G C88U A91U A95U | -3.57
G10U C89A G117U | -4.64
A37G G60A G127A | -2
A108G U109A C124A | -4.41
G60C C64G A90G A105C G117C G128A U133C U134G | -4.98
G120A G127A | -0.68
U32A C56G G60C C62A A121C | -6.89
G19U G71C A121U | -2.34
C12U C62G C85A C88U | -2.72
C12A C15U C70U C86U | -2.81
C12A G47C C70U G120C | -1.04
C3A A43U G60C C82G | -5.1
G39A G48U A50U A84U C85A | -3.82

Variant | polymerase ribozyme fitness (log ratio)
G42U G47U | -1.51
A46U A95G C115U G128A | -4.98
C80G U87A A90U A111C | -6.64
C11G G19A C53U C62U A111G | -1
G39C U59A C104A | -2.48
U9G G51A G60A C94A | -3.72
C40A A43G C53U G58A | -4.13
C8U C49U C94G C104U U106A U112C | -1.29
G58U C94U C101G | -1.75
C20U A83C | -1.52
C12A U59C | -0.85
C56A C70A | -2.72
C11A C53G G69U C72U | -1.37
C8G G36U G47A C72G U92G C115A | -6.07
A43G U112A | -0.27
A6U G48U C53A | -0.649
U116C G120U | 0.377
G45U C89U U96A C114U C124G | -2.49
C13A G48A G69A C114U U129A | -6.99
U78A C101G | -2.13
C73A C85A G117A A119G U133C G135C | -0.124
C62A G93A | -2.07
A68G U96G | -3.68
U9G G36U G57U | -0.893

Variant | polymerase ribozyme fitness (log ratio)
C31U U38C | -5.6
G48A U96A | -1.94
C53U U87A | -0.467
C15G C70A | -5.24
C64U C73G C94U G120C | -3.99
C49A C88A G127U | -2.42
C13U C70A C73U | -1.58
G19U G63A G77U U109A C114U G117C | -6.78
C3U C12U | -1.59
A37C G58A C72G U78C G113C | -3.84
C4A G63C G77C G128U | -3.69
C12A U92A C97G C123G G128U | -6.73
A5U C40U C88A C101A A121U | 0.119
A6C C8A A121C | 1.45
G48C C72U U78C C86A C101A C114U C124U | -4.1
C13G G47U G77U | -3.79
C53U C73G C85U C102A | -5.04
U54C C70A C82A G128U | -5.17
U55A G117A | -1.34
C28U C73G | -2.44
G36C C64U G113U | -3.55
A2U A37U G42C G93C G120A C123G U130A | -6.65
G51U G52C U96C | -3.75
C98U C114G | -5.02

Variant | polymerase ribozyme fitness (log ratio)
G17A G48C C49G A84U C124U | -2.52
C8A C123G | 2.06
C64U G113C | -0.91
C15U G60U C123U | -0.514
C56G C72A C79U G117U | -4.93
C40G A41U G45A G60A A91U | -4.96
G17U G69U | -0.0598
A26U U54C C86G A121U | -0.876
G60A G128C | -2.6
C56U U96A | -1.14
G48U C56A G69U C89A C115A A118U | -1.82
A18G C49A C79U G120C G128U | -5.04
A26U A74U C88A G93A C101U | -5.3
C3A C72U | -1.75
U116A U130C | -2.68
C3U G45U | -1.13
C20A C34U C72U C76A C82A A121C G135U | -6.49
A46G G69C G113A | -3.12
U9G G45A A46C U106C | -0.292
A29G G39U C94G | -2.78
G10A G44A A46U G48C | -1.66
U78C U87A C98U | -1.12
A29G C40U G63A C104U G122A | -2.07
G10C C13G C94A | -0.274

Variant | polymerase ribozyme fitness (log ratio)
C40A A41G G42A A43G G122U | -3.41
C3U G45C G61A | 0.0995
G42U C56G C73A | -4.4
C8G G36U C49G C62G U129C | -3.6
G17U G44C G57U U112C G135A | -1.76
G47A C72G G113U G122A G127U | -4.96
A5U A46U U81A | -2.98
C86A C104U | 0.0777
C89U A95U C115U | -2.59
A37G G71U C114A A119C | -5.35
C3U C40A C56U G120A | -0.0248
C89U U96A | -1.3
A43U C88A | -1.18
G17U G61A C72A C89A | -4.9
A41U C82U A103U G110C G122A | -7.14
G44A G47U | -2.36
C62A U131C | -0.63
C4U G17C G69U | -2.09
G45U G93C C124G | 0.153
G42C A74U U96G C124U | -1.27
A43U G71C | -2.56
C11A C40A A74G G135U | -2.09
C8G G17U A26U C72G | -4.46
